Reference: the Immune Epitope Database (IEDB)

Columns and labels:
[1] = target: HLA-A*68:02; assay: IEDB peptide-MHC binding, purified MHC/direct/fluorescence; filed as Kd, often an IC50 or EC50 that approximates it; ≥ and ≤ were set here for values at or beyond the usual limits of such assays
[2] = target: HLA-B*08:02; assay: as above
[3] = target: HLA-A*69:01; assay: as above
[4] = target: HLA-A*31:01; assay: as above
[5] = target: HLA-B*48:01; assay: as above
[6] = target: HLA-B*15:09; assay: as above; details: source organism: Ravn virus - Ravn, Kenya, 1987
[7] = target: HLA-B*57:01; assay: as above
[8] = target: HLA-A*11:01; assay: as above
[9] = target: HLA-B*58:01; assay: as above
[10] = target: HLA-B*27:05; assay: as above
[11] = target: HLA-A*01:01; assay: as above
[12] = target: HLA-B*07:02; assay: as above
[13] = target: HLA-B*18:01; assay: as above; details: source organism: Marburg virus - Musoke, Kenya, 1980
[14] = target: HLA-B*73:01; assay: as above; details: source organism: Marburg virus - Musoke, Kenya, 1980
[15] = target: HLA-A*26:01; assay: IEDB peptide-MHC binding, purified MHC/competitive/fluorescence; filed as Kd, often an IC50 or EC50 that approximates it; ≥ and ≤ were set here for values at or beyond the usual limits of such assays; details: source organism: Orthomarburgvirus marburgense
[16] = target: HLA-B*15:01; assay: as above; details: source organism: Orthomarburgvirus marburgense
[17] = target: HLA-B*15:17; assay: as above; details: source organism: Orthomarburgvirus marburgense
[18] = target: HLA-A*26:02; assay: as above; details: source organism: Orthomarburgvirus marburgense
[19] = target: HLA-B*39:01; assay: as above; details: source organism: Orthomarburgvirus marburgense
[20] = target: HLA-A*26:03; assay: as above; details: source organism: Orthomarburgvirus marburgense
[21] = target: HLA-B*08:01; assay: IEDB peptide-MHC binding, purified MHC/direct/fluorescence; filed as Kd, often an IC50 or EC50 that approximates it; ≥ and ≤ were set here for values at or beyond the usual limits of such assays
[22] = target: HLA-B*08:03; assay: as above; details: source organism: Mycobacterium tuberculosis str. Haarlem
[23] = target: HLA-B*15:01; assay: as above
[24] = target: HLA-B*40:01; assay: as above
[25] = target: HLA-B*15:17; assay: as above; details: source organism: Mycobacterium tuberculosis
[26] = target: HLA-A*26:02; assay: as above; details: source organism: Mycobacterium tuberculosis str. Haarlem
[27] = target: HLA-B*46:01; assay: as above; details: source organism: Mycobacterium tuberculosis
[28] = target: HLA-A*02:01; assay: IEDB peptide-MHC binding, purified MHC/competitive/fluorescence; filed as Kd, often an IC50 or EC50 that approximates it; ≥ and ≤ were set here for values at or beyond the usual limits of such assays; details: source organism: Mycobacterium tuberculosis variant bovis BCG str. Pasteur 1173P2
[29] = target: HLA-A*26:01; assay: IEDB peptide-MHC binding, purified MHC/direct/fluorescence; filed as Kd, often an IC50 or EC50 that approximates it; ≥ and ≤ were set here for values at or beyond the usual limits of such assays
[30] = target: HLA-A*24:03; assay: as above
[31] = target: HLA-A*02:01; assay: as above
[32] = target: HLA-A*03:01; assay: as above
[33] = target: HLA-A*02:50; assay: IEDB peptide-MHC binding, purified MHC/competitive/fluorescence; filed as Kd, often an IC50 or EC50 that approximates it; ≥ and ≤ were set here for values at or beyond the usual limits of such assays
[34] = target: HLA-B*44:02; assay: IEDB peptide-MHC binding, purified MHC/direct/fluorescence; filed as Kd, often an IC50 or EC50 that approximates it; ≥ and ≤ were set here for values at or beyond the usual limits of such assays; details: source organism: Yersinia pestis
[35] = target: HLA-A*02:11; assay: as above; details: source organism: Burkholderia mallei ATCC 23344
[36] = target: HLA-C*04:01; assay: as above
[37] = target: HLA-B*15:02; assay: IEDB peptide-MHC binding, purified MHC/competitive/fluorescence; filed as Kd, often an IC50 or EC50 that approximates it; ≥ and ≤ were set here for values at or beyond the usual limits of such assays
[38] = target: HLA-A*23:01; assay: as above; details: source organism: Cryptosporidium parvum Iowa II
[39] = target: HLA-B*35:01; assay: IEDB peptide-MHC binding, purified MHC/direct/fluorescence; filed as Kd, often an IC50 or EC50 that approximates it; ≥ and ≤ were set here for values at or beyond the usual limits of such assays; details: source organism: Corynebacterium glutamicum
[40] = source organism: Marburg virus - Musoke, Kenya, 1980
[41] = source organism: Mycobacterium tuberculosis str. Haarlem
[42] = source organism: Mycobacterium tuberculosis
[43] = source organism: Haemophilus influenzae
[44] = source organism: Yersinia pestis
[45] = source organism: Burkholderia mallei
[46] = source organism: Corynebacterium efficiens
[47] = source organism: Corynebacterium glutamicum

Measured: Kd

ARHGEYAPF
0.738 µM: [18]
0.168 µM: [10]; [40]
3.34 µM: [16]
4 µM: [15]
1.09 µM: [19]
≥ 20 µM: [1]; [40] | [2]; source organism: Ravn virus - Ravn, Kenya, 1987 | [3]; [40] | [4]; [40] | [5]; [40] | [6] | [7]; [40] | [8]; [40] | [9]; [40] | [11]; [40] | [12]; [40] | [13] | [14] | [17] | [20]

KLVGIELPK
6.82 µM: [4]; [42]
≥ 20 µM: [21]; [41] | [1]; [42] | [2]; [41] | [3]; [42] | [22] | [5]; [42] | [23]; [42] | [7]; [42] | [9]; [42] | [10]; [42] | [24]; [42] | [11]; [42] | [12]; [42] | [25] | [26] | [27] | [28]
0.0733 µM: [8]; [42]

LIFPAFFLC
5.1 µM: [31]; [43]
5.24 µM: [11]; [43]
0.012 µM: [33]; source organism: Haemophilus influenzae PittAA
≥ 20 µM: [21]; [43] | [29]; [43] | [3]; [43] | [30]; [43] | [4]; [43] | [23]; [43] | [8]; [43] | [10]; [43] | [24]; [43] | [12]; [43] | [32]; [43]
≥ 10 µM: [9]; [43]

LLIDDSFSS
0.0025 µM: [33]; source organism: Yersinia pestis Nepal516
1.89 µM: [23]; [44]
≥ 20 µM: [21]; [44] | [29]; [44] | [3]; [44] | [30]; [44] | [4]; [44] | [34] | [8]; [44] | [9]; [44] | [10]; [44] | [24]; [44] | [11]; [44] | [12]; [44] | [32]; [44]
0.65 µM: [31]; [44]

MQQAYQCIV
0.0116 µM: [33]; source organism: Burkholderia mallei NCTC 10229
0.028 µM: [35]
0.0865 µM: [31]; [45]
9.04 µM: [3]; [45]

MYTRNLLWL
0.0018 µM: [30]; source organism: Escherichia coli
≥ 20 µM: [36]; source organism: Escherichia coli HS

SLYDIITVM
≥ 20 µM: [37]; source organism: Listeria monocytogenes

TFMGMNVQF
≥ 20 µM: [36]; source organism: Cryptosporidium parvum Iowa II
0.0012 µM: [38]

VQLQEYDTY
0.199 µM: [23]; [47]
≥ 20 µM: [21]; [46] | [29]; [46] | [3]; [46] | [4]; [46] | [8]; [46] | [9]; [46] | [10]; [46] | [24]; [46] | [31]; [46] | [12]; [46] | [32]; [46] | [37]; [46]
0.383 µM: [39]
≥ 5 µM: [11]; [47]
